Results reported in US6218600A, “Structure and expression of the biotin carboxylase subunit of heteromeric acetyl-CoA carboxylase” (Board of Trustees Operating Michigan State University, priority 1996, dated 2001).

Tests used:
Castor Endosperm ACCase = assay: ACCase activity assay, castor endosperm extract, with metabolites of fatty acid synthesis; type: biochemical, castor (Ricinus Communis L.); conditions: mean of duplicate determinations ± standard deviation, 15 min
Pea Chloroplast ACCase = assay: ACCase activity assay, pea chloroplast enzyme partially purified by gel permeation, with metabolites of fatty acid synthesis; type: biochemical, pea (Pisum sativum); conditions: mean of duplicate determinations ± standard deviation, 15 min

Molecule | Castor ACCase Activity (% of Control) (Castor Endosperm ACCase; 10 μM addition) | Pea ACCase Activity (% of control) (Pea Chloroplast ACCase; 1 μM addition) | Pea ACCase Activity (% of control) (Pea Chloroplast ACCase; 3 μM addition) | Pea ACCase Activity (% of control) (Pea Chloroplast ACCase; 10 μM addition) | Castor ACCase Activity (% of Control) (Castor Endosperm ACCase; 5 μM addition)
CCCCCCCCCCCCCCCC(=O)O [16:0, reference compound] | 97 ± 8 % of Control |  |  |  | 
CCCCCCCC/C=C\CCCCCCCC(=O)O [18:1, Oleic acid, reference compound] | 72 ± 10 % of Control |  |  |  | 
16:0-ACP: long-chain acyl-ACP synthesized from radioactive 16:0 fatty acid and recombinant spinach ACP-I (conjugate, UniProt P07854 57-138, looked up, radiolabeled palmitoyl (16:0) acyl thioester) Acyl carrier protein 1, …: AKKETIDKVCDIVKEKLALGADVVVTADSEFSKLGADSLDTVEIVMNLEEEFGINVDEDKAQDISTIQQAADVIESLLEKKA | 75 ± 3 % of Control | 98 ± 2 % of control | 91 ± 4 % of control | 77 ± 4 % of control | 
18:1-ACP: long-chain acyl-ACP synthesized from radioactive 18:1 fatty acid and recombinant spinach ACP-I (conjugate, UniProt P07854 57-138, looked up, radiolabeled oleoyl (18:1) acyl thioester) Acyl carrier protein 1, …: AKKETIDKVCDIVKEKLALGADVVVTADSEFSKLGADSLDTVEIVMNLEEEFGINVDEDKAQDISTIQQAADVIESLLEKKA | 63 ± 11 % of Control | 97 ± 1 % of control | 87 ± 3 % of control | 79 ± 14 % of control | 81 ± 9 % of Control
